Assay results as given in publication PMC3227653 (PLoS ONE, 2011).

B1: A26.8m (VHH)
VHH: QVKLEESGGGLVQAGGSLRLSCAASERTFSRYPVAWFRQAPGAEREFVCVISSTGTSTYYADSVKGRFTCSRDNAKVTVYLQMNNLKREDTAVYFCAVNSQRTRLQDPNEYDYWGQGTQVTVSS
B2: A4.2m (VHH)
VHH: QVKLEESGGGLVQAGGSLRLSCAASGRTFNTLSMGWFRQAPGKEREFVCAVSRSGGSTYYADSVKGRFTCSRDNAKNTVYLQMNSLKPEDTAVYYCAAAATKSNTTAYRLSFDYWGQGTQVTVSS
B3: A5.1m (VHH)
VHH: QVKLEESGGGLVQAGGSLRLSCAASGRTFSMYRMGWFRQAPGKEREFVCVITRNGSSTYYADSVKGRFTCSRDNAKNTVYLQMNSLKPEDTALYYCAATSGSSYLDAAHVYDYWGQGTQVTVSS
B4: A20.1m (VHH)
VHH: QVQLVESGGGLAQAGGSLRLSCAASGRTFSMDPMAWFRQPPGKEREFVCAGSSTGRTTYYADSVKGRFTCSRDNAKNTVYLQMNSLKPEDTAVYYCAAAPYGANWYRDEYAYWGQGTQVTVSS

The binders below were run against Clostridium difficile toxin A (Clostridioides difficile …, UniProt P16154) (assay: SPR). Settings: both partners purified.
Binder B1 has a Kd of 0.028 µM, a koff of 0.028 s⁻¹ and a kon of 1e+06 M⁻¹ s⁻¹.
Binder B2 has a Kd of 0.02 µM, a koff of 0.019 s⁻¹ and a kon of 930000 M⁻¹ s⁻¹.
Work on B3 yielded a Kd of 0.017 µM, a koff of 0.016 s⁻¹ and a kon of 950000 M⁻¹ s⁻¹.
With B4 the Kd was 0.0092 µM, the koff was 0.0059 s⁻¹ and the kon was 640000 M⁻¹ s⁻¹.
